Measured values published in the Human Domainome abundance scans (Beltran et al. 2025).
± gives the uncertainty stated by the source.

B1: Segment polarity protein dishevelled homolog DVL-3, residues 2 to 81; numbered along this chain, Q92997 (parent)
chain: GETKIIYHLDGQETPYLVKLPLPAERVTLADFKGVLQRPSYKFFFKSMDDDFGVVKEEISDDNAKLPCFNGRVVSWLVSA

Variants of: B1
Assay: abundance fitness (aPCA) (normalised: wild type 0, dead -1); higher = more abundant; growth selection in yeast, the domain comes from the species named
Conditions: Homo sapiens

Variant | abundance fitness
GETKIIYHLDGQETPYLVKLPLPAERVTLADFKGVLQRPSYKFFFKSMDDDFGVVKEEISDDNAKLPCFNGRVVSWLVLA [S79L] | -0.67 ± 0.092
GETKIIYHLDGQETPYLVKLPLPAERVTLADFKGVLQRPSYKFFFKSMDDDFGVVKEEISDDNAKLPCFNGRVVSWLVGA [S79G] | -0.287 ± 0.054
GETKIIYHLDGQETPYLVKLPLPAERVTLADFKGVLQRPSYKFFFKSMDDDFGVVKEEISDDNAKLPCFNGRVVSWLVIA [S79I] | -0.652 ± 0.27
GETKIIYHLDGQETPYLVKLPLPAERVTLADFKGVLQRPSYKFFFKSMDDDFGVVKEEISDDNAKLPCFNGRVVSWLVAA [S79A] | -0.206 ± 0.062
GETKIIYHLDGQETPYLVKLPLPAERVTLADFKGVLQRPSYKFFFKSMDDDFGVVKEEISDDNAKLPCFNGRVVSWLVEA [S79E] | 0.002 ± 0.056
GETKIIYHLDGQETPYLVKLPLPAERVTLADFKGVLQRPSYKFFFKSMDDDFGVVKEEISDDNAKLPCFNGRVVSWLVCA [S79C] | -0.228 ± 0.083
GETKIIYHLDGQETPYLVKLPLPAERVTLADFKGVLQRPSYKFFFKSMDDDFGVVKEEISDDNAKLPCFNGRVVSWLVDA [S79D] | 0.079 ± 0.065
GETKIIYHLDGQETPYLVKLPLPAERVTLADFKGVLQRPSYKFFFKSMDDDFGVVKEEISDDNAKLPCFNGRVVSWLVFA [S79F] | -0.504 ± 0.16
GETKIIYHLDGQETPYLVKLPLPAERVTLADFKGVLQRPSYKFFFKSMDDDFGVVKEEISDDNAKLPCFNGRVVSWLVHA [S79H] | -0.466 ± 0.16
GETKIIYHLDGQETPYLVKLPLPAERVTLADFKGVLQRPSYKFFFKSMDDDFGVVKEEISDDNAKLPCFNGRVVSWLVKA [S79K] | -0.204 ± 0.076
GETKIIYHLDGQETPYLVKLPLPAERVTLADFKGVLQRPSYKFFFKSMDDDFGVVKEEISDDNAKLPCFNGRVVSTLVSA [W76T] | -0.579 ± 0.1
GETKIIYHLDGQETPYLVKLPLPAERVTLADFKGVLQRPSYKFFFKSMDDDFGVVKEEISDDNAKLPCFNGRVVSGLVSA [W76G] | -0.648 ± 0.079
GETKIIYHLDGQETPYLVKLPLPAERVTLADFKGVLQRPSYKFFFKSMDDDFGVVKEEISDDNAKLPCFNGRVVSRLVSA [W76R] | -0.72 ± 0.075
GETKIIYHLDGQETPYLVKLPLPAERVTLADFKGVLQRPSYKFFFKSMDDDFGVVKEEISDDNAKLPCFNGRVVSNLVSA [W76N] | -0.661 ± 0.27
GETKIIYHLDGQETPYLVKLPLPAERVTLADFKGVLQRPSYKFFFKSMDDDFGVVKEEISDDNAKLPCFNGRVVSKLVSA [W76K] | -0.709 ± 0.12
GETKIIYHLDGQETPYLVKLPLPAERVTLADFKGVLQRPSYKFFFKSMDDDFGVVKEEISDDNAKLPCFNGRVVSVLVSA [W76V] | -0.565 ± 0.088
GETKIIYHLDGQETPYLVKLPLPAERVTLADFKGVLQRPSYKFFFKSMDDDFGVVKEEISDDNAKLPCFNGRVVSQLVSA [W76Q] | -0.943 ± 0.17
GETKIIYHLDGQETPYLVKLPLPAERVTLADFKGVLQRPSYKFFFKSMDDDFGVVKEEISDDNAKLPCFNGRVVSELVSA [W76E] | -0.891 ± 0.14
GETKIIYHLDGQETPYLVKLPLPAERVTLADFKGVLQRPSYKFFFKSMDDDFGVVKEEISDDNAKLPCFNGRVVSILVSA [W76I] | -1.4 ± 0.5
GETKIIYHLDGQETPYLVKLPLPAERVTLADFKGVLQRPSYKFFFKSMDDDFGVVKEEISDDNAKLPCFNGRVVSPLVSA [W76P] | -0.625 ± 0.13
GETKIIYHLDGQETPYLVKLPLPAERVTLADFKGVLQRPSYKFFFKSMDDDFGVVKEEISDDNAKLPCFNGRVVSYLVSA [W76Y] | -0.456 ± 0.2
GETKIIYHLDGQETPYLVKLPLPAERVTLADFKGVLQRPSYKFFFKSMDDDFGVVKEEISDDNAKLPCFNGRVVSCLVSA [W76C] | -0.737 ± 0.19
GETKIIYHLDGQETPYLVKLPLPAERVTLADFKGVLQRPSYKFFFKSMDDDFGVVKEEISDDNAKLPCFNGRVVSHLVSA [W76H] | -1.2 ± 0.38

Variant | abundance fitness
GETKIIYHLDGQETPYLVKLPLPAERVTLADFKGVLQRPSYKFFFKSMDDDFGVVKEEISDDNAKLPCFNGRVVSFLVSA [W76F] | -0.482 ± 0.23
GETKIIYHLDGQETPYLVKLPLPAERVTLADFKGVLQRPSYKFFFKSMDDDFGVVKEEISDDNAKLPCFNGRVVSMLVSA [W76M] | -0.678 ± 0.13
GETKIIYHLDGQETPYLVKLPLPAERVTLADFKGVLQRPSYKFFFKSMDDDFGVVKEEISDDNAKLPCFNGRVVSLLVSA [W76L] | -0.842 ± 0.12
GETKIIYHLDGQETPYLVKLPLPAERVTLADFKGVLQRPSYKFFFKSMDDDFGVVKEEISDDNAKLPCFNGRVVSWLESA [V78E] | -0.008 ± 0.099
GETKIIYHLDGQETPYLVKLPLPAERVTLADFKGVLQRPSYKFFFKSMDDDFGVVKEEISDDNAKLPCFNGRVVSWLYSA [V78Y] | 0.102 ± 0.069
GETKIIYHLDGQETPYLVKLPLPAERVTLADFKGVLQRPSYKFFFKSMDDDFGVVKEEISDDNAKLPCFNGRVVSWLSSA [V78S] | -0.587 ± 0.091
GETKIIYHLDGQETPYLVKLPLPAERVTLADFKGVLQRPSYKFFFKSMDDDFGVVKEEISDDNAKLPCFNGRVVSWLFSA [V78F] | -0.162 ± 0.079
GETKIIYHLDGQETPYLVKLPLPAERVTLADFKGVLQRPSYKFFFKSMDDDFGVVKEEISDDNAKLPCFNGRVVSWLISA [V78I] | -0.139 ± 0.067
GETKIIYHLDGQETPYLVKLPLPAERVTLADFKGVLQRPSYKFFFKSMDDDFGVVKEEISDDNAKLPCFNGRVVSWLASA [V78A] | -0.836 ± 0.25
GETKIIYHLDGQETPYLVKLPLPAERVTLADFKGVLQRPSYKFFFKSMDDDFGVVKEEISDDNAKLPCFNGRVVSWLDSA [V78D] | -0.708 ± 0.13
GETKIIYHLDGQETPYLVKLPLPAERVTLADFKGVLQRPSYKFFFKSMDDDFGVVKEEISDDNAKLPCFNGRVVSWLQSA [V78Q] | -0.486 ± 0.21
GETKIIYHLDGQETPYLVKLPLPAERVTLADFKGVLQRPSYKFFFKSMDDDFGVVKEEISDDNAKLPCFNGRVVSWLGSA [V78G] | -0.558 ± 0.1
GETKIIYHLDGQETPYLVKLPLPAERVTLADFKGVLQRPSYKFFFKSMDDDFGVVKEEISDDNAKLPCFNGRVVSWLKSA [V78K] | -0.105 ± 0.12
GETKIIYHLDGQETPYLVKLPLPAERVTLADFKGVLQRPSYKFFFKSMDDDFGVVKEEISDDNAKLPCFNGRVVSWLLSA [V78L] | -0.398 ± 0.093
GETKIIYHLDGQETPYLVKLPLPAERVTLADFKGVLQRPSYKFFFKSMDDDFGVVKEEISDDNAKLPCFNGRVVSWLRSA [V78R] | -0.322 ± 0.1
GETKIIYHLDGQETPYLVKLPLPAERVTLADFKGVLQRPSYKFFFKSMDDDFGVVKEEISDDNAKLPCFNGRVVSWLWSA [V78W] | -0.228 ± 0.12
GETKIIYHLDGQETPYLVKLPLPAERVTLADFKGVLQRPSYKFFFKSMDDDFGVVKEEISDDNAKLPCFNGRVVSWLCSA [V78C] | -0.131 ± 0.088
GETKIIYHLDGQETPYLVKLPLPAERVTLADFKGVLQRPSYKFFFKSMDDDFGVVKEEISDDNAKLPCFNGRVVSWLMSA [V78M] | -0.19 ± 0.16
GETKIIYHLDGQETPYLVKLPLPAERVTLADFKGVLQRPSYKFFFKSMDDDFGVVKEEISDDNAKLPCFNGRVVSWLNSA [V78N] | -0.585 ± 0.1
GETKIIYHLDGQETPYLVKLPLPAERVTLADFKGVLQRPSYKFFFKSMDDDFGVVKEEISDDNAKLPCFNGRVVSWLTSA [V78T] | -0.127 ± 0.084
GETKIIYHLDGQETPYLVKLPLPAERVTLADFKGVLQRPSYKFFFKSMDDDFGVVKEEISDDNAKLPCFNGRVVSWVVSA [L77V] | -0.064 ± 0.065
GETKIIYHLDGQETPYLVKLPLPAERVTLADFKGVLQRPSYKFFFKSMDDDFGVVKEEISDDNAKLPCFNGRVVSWPVSA [L77P] | -0.929 ± 0.28
GETKIIYHLDGQETPYLVKLPLPAERVTLADFKGVLQRPSYKFFFKSMDDDFGVVKEEISDDNAKLPCFNGRVVSWMVSA [L77M] | -0.395 ± 0.21

Variant | abundance fitness
GETKIIYHLDGQETPYLVKLPLPAERVTLADFKGVLQRPSYKFFFKSMDDDFGVVKEEISDDNAKLPCFNGRVVSWYVSA [L77Y] | -0.911 ± 0.14
GETKIIYHLDGQETPYLVKLPLPAERVTLADFKGVLQRPSYKFFFKSMDDDFGVVKEEISDDNAKLPCFNGRVVSWAVSA [L77A] | -1.11 ± 0.2
GETKIIYHLDGQETPYLVKLPLPAERVTLADFKGVLQRPSYKFFFKSMDDDFGVVKEEISDDNAKLPCFNGRVVSWFVSA [L77F] | -0.855 ± 0.14
GETKIIYHLDGQETPYLVKLPLPAERVTLADFKGVLQRPSYKFFFKSMDDDFGVVKEEISDDNAKLPCFNGRVVSWSVSA [L77S] | -0.831 ± 0.11
GETKIIYHLDGQETPYLVKLPLPAERVTLADFKGVLQRPSYKFFFKSMDDDFGVVKEEISDDNAKLPCFNGRVVSWIVSA [L77I] | -0.358 ± 0.088
GETKIIYHLDGQETPYLVKLPLPAERVTLADFKGVLQRPSYKFFFKSMDDDFGVVKEEISDDNAKLPCFNGRVVSWHVSA [L77H] | -0.536 ± 0.18
GETKIIYHLDGQETPYLVKLPLPAERVTLADFKGVLQRPSYKFFFKSMDDDFGVVKEEISDDNAKLPCFNGRVVSWDVSA [L77D] | -0.471 ± 0.1
GETKIIYHLDGQETPYLVKLPLPAERVTLADFKGVLQRPSYKFFFKSMDDDFGVVKEEISDDNAKLPCFNGRVVSWGVSA [L77G] | -0.572 ± 0.11
GETKIIYHLDGQETPYLVKLPLPAERVTLADFKGVLQRPSYKFFFKSMDDDFGVVKEEISDDNAKLPCFNGRVVSWTVSA [L77T] | -0.243 ± 0.099
GETKIIYHLDGQETPYLVKLPLPAERVTLADFKGVLQRPSYKFFFKSMDDDFGVVKEEISDDNAKLPCFNGRVVSWCVSA [L77C] | -0.29 ± 0.081
GETKIIYHLDGQETPYLVKLPLPAERVTLADFKGVLQRPSYKFFFKSMDDDFGVVKEEISDDNAKLPCFNGRVVSWRVSA [L77R] | -0.903 ± 0.14
GETKIIYHLDGQETPYLVKLPLPAERVTLADFKGVLQRPSYKFFFKSMDDDFGVVKEEISDDNAKLPCFNGRVVSWNVSA [L77N] | -0.751 ± 0.12
GETKIIYHLDGQETPYLVKLPLPAERVTLADFKGVLQRPSYKFFFKSMDDDFGVVKEEISDDNAKLPCFNGRVVSWKVSA [L77K] | -0.261 ± 0.13
GETKIIYHLDGQETPYLVKLPLPAERVTLADFKGVLQRPSYKFFFKSMDDDFGVVKEEISDDNAKLPCFNGRVVSWEVSA [L77E] | -0.915 ± 0.24
GETKIIYHLDGQETPYLVKLPLPAERVTLADFKGVLQRPSYKFFFKSMDDDFGVVKEEISDDNAKLPCFNGRVVYWLVSA [S75Y] | -0.669 ± 0.1
GETKIIYHLDGQETPYLVKLPLPAERVTLADFKGVLQRPSYKFFFKSMDDDFGVVKEEISDDNAKLPCFNGRVVLWLVSA [S75L] | -0.463 ± 0.093
GETKIIYHLDGQETPYLVKLPLPAERVTLADFKGVLQRPSYKFFFKSMDDDFGVVKEEISDDNAKLPCFNGRVVMWLVSA [S75M] | -0.726 ± 0.2
GETKIIYHLDGQETPYLVKLPLPAERVTLADFKGVLQRPSYKFFFKSMDDDFGVVKEEISDDNAKLPCFNGRVVVWLVSA [S75V] | -0.161 ± 0.058
GETKIIYHLDGQETPYLVKLPLPAERVTLADFKGVLQRPSYKFFFKSMDDDFGVVKEEISDDNAKLPCFNGRVVWWLVSA [S75W] | -0.603 ± 0.21
GETKIIYHLDGQETPYLVKLPLPAERVTLADFKGVLQRPSYKFFFKSMDDDFGVVKEEISDDNAKLPCFNGRVVRWLVSA [S75R] | -0.606 ± 0.1
GETKIIYHLDGQETPYLVKLPLPAERVTLADFKGVLQRPSYKFFFKSMDDDFGVVKEEISDDNAKLPCFNGRVVTWLVSA [S75T] | -0.519 ± 0.11
GETKIIYHLDGQETPYLVKLPLPAERVTLADFKGVLQRPSYKFFFKSMDDDFGVVKEEISDDNAKLPCFNGRVVNWLVSA [S75N] | -0.899 ± 0.12
GETKIIYHLDGQETPYLVKLPLPAERVTLADFKGVLQRPSYKFFFKSMDDDFGVVKEEISDDNAKLPCFNGRVVPWLVSA [S75P] | -0.59 ± 0.16
